The source of these data is patent US20040062769A1 (US Dept. of Health and Human Services, published 2004).

The assay concerns the target T1, FCR3.varCSA protein (Plasmodium falciparum (FCR3 strain), surface iodinated (125I) in the thrombomodulin bead capture).
T1 construct: also called FCR3-CSA var
The experiment in a line: cytoadhesion of FCR3-CSA PRBCs to CHO-745 cells expressing CD36 (Table 1).

B1: human CD36 expressed on CHO-745 cells (receptor)
chain: GCDRNCGLIAGAVIGAVLAVFGGILMPVGDLLIQKTIKKQVVLEEGTIAFKNWVKTGTEVYRQFWIFDVQNPQEVMMNSSNIQVKQRGPYTYRVRFLAKENVTQDAEDNTVSFLQPNGAIFEPSLSVGTEADNFTVLNLAVAAASHIYQNQFVQMILNSLINKSKSSMFQVRTLRELLWGYRDPFLSLVPYPVTTTVGLFYPYNNTADGVYKVFNGKDNISKVAIIDTYKGKRNLSYWESHCDMINGTDAASFPPFVEKSQVLQFFSSDICRSIYAVFESDVNLKGIPVYRFVLPSKAFASPVENPDNYCFCTEKIISKNCTSYGVLDISKCKEGRPVYISLPHFLYASPDVSEPIDGLNPNEEEHRTYLDIEPITGFTLQFAKRLQVNLLVKPSEKIQVLKNLKRNYIVPILWLNETGTIGDEKANMFRSQVTGKINLLGLIEMILLSVGVVMFVAFMISYCACRSKTIK
notes: whole, on cells; also called CHO^CD36
On to B1, for which the binding result is recorded as “no binding”.
